Drawing on article PMC3683295, this text covers stoichiometry N for 3 substances.

The target in test [1] is BCL-xLΔC (human) (UniProt Q07817). Description: native gel or EMSA. (In general: A gel shift assay detects complexes by their altered migration in electrophoresis.)
Test [2] deals with BCL-xLΔLΔC (human) (UniProt Q07817). Description: AUC.
For test [3] the target is unchanged. Description: NMR solution structure.
Test [4] shares this target. Nature of the test: native gel or EMSA.

With PUMA^BH3 (peptide), the stoichiometry N in test [1], in test [2] and in test [3] was 1 throughout.
With “BCL-xLΔC (from UniProt Q07817-1 1-211) (domain or fragment)”, the stoichiometry N (in general, a count of units in the complex or per binding partner) in test [1] was found to be 2.
Substance “BCL-xLΔLΔC (from UniProt Q07817-1 1-211) (domain or fragment)” returned a stoichiometry N in test [4] of 2.
